Reference: patent publication US20250270289A1, “SEQUENCE-DEFINED POLYMERS WITH ONE OR MORE AZIDES, METHODS OF MAKING, AND METHODS OF USE THEREOF” (Yale University, priority 2021, published 2025)

Legend:
[1] = target: GST-Src SH2 [GST: P08515]; experiment: fluorescence polarization competition; competitor FITC-pTyrEEI on GST-Src SH2
[2] = target: GST-Src SH2 [GST: P08515]; experiment: fluorescence polarization, GST-Src SH2 titrated on 10 nM FITC-pTyrEEI, one-site binding model
[3] = target: GST-Src SH2 [GST: P08515]; experiment: fluorescence polarization competition, EC50 of pnY peptide against that of pTyr peptide

Chain of GST-Src SH2 [GST: P08515] (P08515 whole entry): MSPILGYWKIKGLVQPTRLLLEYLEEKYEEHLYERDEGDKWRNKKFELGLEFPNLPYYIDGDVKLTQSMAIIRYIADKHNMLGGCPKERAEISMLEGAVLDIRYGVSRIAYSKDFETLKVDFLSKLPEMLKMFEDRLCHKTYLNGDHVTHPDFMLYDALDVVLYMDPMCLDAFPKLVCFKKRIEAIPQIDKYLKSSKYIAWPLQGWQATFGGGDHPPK

Substance | EC50 [1] | Kd [2] | Decrease in binding affinity with SH2 (against pTyr) [3]
pTyrEEI (peptide) | 740 nM | – | –
FITC-pTyrEEI (peptide) | – | 280 nM | –
pnYEEI (peptide) | 12800 nM | – | 17 fold
